The values below come from PMC3797037, “Structural and Mechanistic Insight into DNA Unwinding by Deinococcus radiodurans UvrD” (PLoS ONE, 2013).

Where a chain is given by its changes, count along the chain named.

Series [1] has as its target T1, drUvrDΔC (Deinococcus radiodurans, UniProt Q9RTI9 1-665, del666-745).
T1 sequence: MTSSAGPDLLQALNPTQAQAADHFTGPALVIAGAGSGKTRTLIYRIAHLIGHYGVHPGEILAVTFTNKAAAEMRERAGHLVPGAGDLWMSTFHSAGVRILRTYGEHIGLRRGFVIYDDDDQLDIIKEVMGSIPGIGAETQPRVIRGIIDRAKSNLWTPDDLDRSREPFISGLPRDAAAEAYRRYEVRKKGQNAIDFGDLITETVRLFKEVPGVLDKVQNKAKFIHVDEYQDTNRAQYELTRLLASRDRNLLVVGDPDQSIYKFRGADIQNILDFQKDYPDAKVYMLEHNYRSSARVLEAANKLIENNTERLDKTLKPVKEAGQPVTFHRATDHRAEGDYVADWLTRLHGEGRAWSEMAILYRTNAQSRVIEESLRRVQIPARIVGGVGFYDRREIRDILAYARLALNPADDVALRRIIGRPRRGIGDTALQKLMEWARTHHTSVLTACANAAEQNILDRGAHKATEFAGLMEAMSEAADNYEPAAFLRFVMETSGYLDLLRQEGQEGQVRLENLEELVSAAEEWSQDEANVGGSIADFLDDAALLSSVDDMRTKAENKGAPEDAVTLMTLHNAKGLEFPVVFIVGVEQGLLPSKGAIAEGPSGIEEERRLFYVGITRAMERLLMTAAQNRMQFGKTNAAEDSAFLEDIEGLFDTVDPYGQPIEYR
Nature of the series: X-ray crystallography (3.0 Å); fluorescein-dT21 DNA; Fluorescence anisotropy: buffer A (composition not in material) + 0.05% Tween 20, 0.1 mg/mL BSA, 1 mM AMPPNP; 2.5 nM DNA, 0-8 µM protein, 80 µl, room temperature; single-site fit. To be noted: protein: recombinant; tags: N-terminal His-tag cleaved with TEV (pET151d); chain copies: 2; label: fluorescein (internal dT21); 18 bp duplex, 3' overhang 7 nt at both ends.

Series [2] addresses T2, drUvrD G426T (Deinococcus radiodurans, UniProt Q9RTI9 1-745, G426T).
T2 sequence: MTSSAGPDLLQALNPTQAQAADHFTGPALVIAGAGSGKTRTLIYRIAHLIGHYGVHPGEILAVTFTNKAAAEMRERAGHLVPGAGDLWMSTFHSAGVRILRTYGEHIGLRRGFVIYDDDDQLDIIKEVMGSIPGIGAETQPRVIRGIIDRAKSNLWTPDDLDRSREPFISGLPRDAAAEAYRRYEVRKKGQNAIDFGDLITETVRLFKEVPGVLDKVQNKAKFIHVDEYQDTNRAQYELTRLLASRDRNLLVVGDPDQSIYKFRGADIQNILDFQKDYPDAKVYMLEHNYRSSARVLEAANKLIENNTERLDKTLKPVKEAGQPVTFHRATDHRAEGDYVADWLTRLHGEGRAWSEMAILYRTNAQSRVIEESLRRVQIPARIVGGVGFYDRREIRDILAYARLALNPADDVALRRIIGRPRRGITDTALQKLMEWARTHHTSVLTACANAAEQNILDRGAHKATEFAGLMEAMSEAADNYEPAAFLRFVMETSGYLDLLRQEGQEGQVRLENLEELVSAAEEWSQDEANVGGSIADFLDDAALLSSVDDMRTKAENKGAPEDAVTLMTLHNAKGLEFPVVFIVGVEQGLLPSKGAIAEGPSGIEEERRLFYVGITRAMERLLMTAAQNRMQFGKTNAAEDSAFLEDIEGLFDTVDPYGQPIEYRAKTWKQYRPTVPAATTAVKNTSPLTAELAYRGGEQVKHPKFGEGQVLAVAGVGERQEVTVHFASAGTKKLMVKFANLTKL
Nature of the series: fluorescence anisotropy; 1 mM AMPPNP; not significantly different from WT; Fluorescence anisotropy: buffer A (composition not in material) + 0.05% Tween 20, 0.1 mg/mL BSA, 1 mM AMPPNP; 2.5 nM DNA, 0-8 µM protein, 80 µl, room temperature; single-site fit. The settings on record: protein: recombinant, tags: N-terminal His-tag cleaved with TEV (pET151d), label: fluorescein (internal dT12), 25 bp duplex, other end blunt. A general note: In fluorescence polarisation assays a small probe gives low polarisation when free and higher when bound to something large.

The target of series [3] is T3, drUvrD FL (WT) (Deinococcus radiodurans, UniProt Q9RTI9 1-745).
T3 sequence: T2 sequence with T426G
Briefly: fluorescence anisotropy; 1 mM AMPPNP; Fluorescence anisotropy: buffer A (composition not in material) + 0.05% Tween 20, 0.1 mg/mL BSA, 1 mM AMPPNP; 2.5 nM DNA, 0-8 µM protein, 80 µl, room temperature; single-site fit. The settings on record: protein: recombinant, tags: N-terminal His-tag cleaved with TEV (pET151d), label: fluorescein (internal dT12), 25 bp duplex, other end blunt.

Series [4] has as its target T1, drUvrDΔC. Nature of the series: X-ray crystallography (2.5 Å); AMPPNP, form I, P212121; Fluorescence anisotropy: buffer A (composition not in material) + 0.05% Tween 20, 0.1 mg/mL BSA, 1 mM AMPPNP; 2.5 nM DNA, 0-8 µM protein, 80 µl, room temperature; single-site fit. To be noted: protein: recombinant; tags: N-terminal His-tag cleaved with TEV (pET151d); chain copies: 2; 18 bp duplex, 3' overhang 7 nt (dT7) at both ends.

Substrate in series [5]: Nc1ncnc2c1ncn2[C@@H]1O[C@H](COP(=O)(O)OP(=O)(O)OP(=O)(O)O)[C@@H](O)[C@H]1O
Briefly: spectrophotometric ATPase assay. Format: biochemical, Deinococcus radiodurans. To be noted: ssDNA-stimulated: excess 25mer polydT (10xKssDNA), ATP 0-1 mM, 100 nM enzyme, 5 mM MgCl2, 100 mM NaCl, pH 8.0, 25°C. From the text:
spectrophotometric ATPase assay on drUvrD^∆C | ATPase data measured on drUvrD^FL and drUvrD^∆C

Series [6] concerns the target T3, drUvrD FL (WT). Nature of the series: X-ray crystallography (4.0 Å); AMPPNP, P21; Fluorescence anisotropy: buffer A (composition not in material) + 0.05% Tween 20, 0.1 mg/mL BSA, 1 mM AMPPNP; 2.5 nM DNA, 0-8 µM protein, 80 µl, room temperature; single-site fit. The settings on record: protein: recombinant; tags: N-terminal His-tag cleaved with TEV (pET151d); 21 bp duplex, 3' overhang 7 nt (dT7) at both ends.

Substrate in series [7]: Nc1ncnc2c1ncn2[C@@H]1O[C@H](COP(=O)(O)OP(=O)(O)OP(=O)(O)O)[C@@H](O)[C@H]1O
Briefly: spectrophotometric ATPase assay. The class given is biochemical, Deinococcus radiodurans. The settings on record: ssDNA-stimulated: excess 25mer polydT (10xKssDNA), ATP 0-1 mM, 100 nM enzyme, 5 mM MgCl2, 100 mM NaCl, pH 8.0, 25°C. From the text: spectrophotometric ATPase assay on drUvrD^FL | determine their apparent turnover rates (Kcat) for ATP hydrolysis, along with their Km for ATP
The source holds these as a separate data set.

Where [8] appears, read: 3' overhang 15 nt (dT15) on strand 2.
Where [9] appears, read: 5' overhang 15 nt (dT15) on strand 2.

Broadly, the Kd is the free concentration of one partner at which half of the binding sites on the other are occupied at equilibrium, for simple one-to-one binding. By Km is commonly meant the concentration of substrate that gives half-maximal velocity. The term kcat denotes the maximal rate divided by the concentration of active sites.

B1: For25-21F/Rev25-21F (dsDNA)
DNA 1: GCAGTGCTCGCAGGTCGTTTTTTTT
DNA 2: ACGACCTGCGAGCACTGCTTTTTTT
modifications: fluorescein-dT at position 21 of both strands
In the case of B1, the binding result in series [1] is listed as “binds”.

B2: 3'-tailed dsDNA (H1T12/H3-15) (dsDNA)
DNA 1: TCGGTACGACCTGCGAGCACTGCTT
DNA 2: AAGCAGTGCTCGCAGGTCGTACCGATTTTTTTTTTTTTTT
modifications: fluorescein-dT at position 12 of strand 1
As to B2, the binding result in series [2] (setting [8]) is reported as “binds”. Also, the Kd in series [3] (setting [8]) amounted to 360 nM.

B3: For25/Rev25 (dsDNA)
DNA 1: GCAGTGCTCGCAGGTCGTTTTTTTT
DNA 2: ACGACCTGCGAGCACTGCTTTTTTT
As to B3, the binding result in series [4] is given as “binds”.

B4: drUvrD^∆C (Deinococcus radiodurans R1 = ATCC 13939 = DSM 20539) (protein)
chain: T1 sequence
notes: C-terminally truncated, missing residues 666-745; pET151d, E. coli BL21 (DE3), N-terminal His-tag cut with TEV protease; crystallized as a monomer, two per DNA duplex
For B4, in series [5], the Km is 77.0 ± 16.9 µM and the kcat worked out at 213.2 ± 11.7 s⁻¹.

B5: For28/Rev28 (dsDNA)
DNA 1: GCAGTGCTCGCAGGTCGTACCTTTTTTT
DNA 2: GGTACGACCTGCGAGCACTGCTTTTTTT
Regarding B5, the binding result in series [6] was “binds”.

B6: drUvrD^FL (Deinococcus radiodurans R1 = ATCC 13939 = DSM 20539) (protein)
chain: T2 sequence with T426G
notes: full-length (residues to 745), pET151d, E. coli BL21 (DE3), N-terminal His-tag cut with TEV protease; crystallized as a monomer, two per DNA duplex
Take B6: in series [7], the Km is 62.1 ± 6.6 µM and the kcat was 149.3 ± 3.5 s⁻¹.

B7: 5'-tailed dsDNA (H1T12/H5-15) (dsDNA)
DNA 1: TCGGTACGACCTGCGAGCACTGCTT
DNA 2: TTTTTTTTTTTTTTTAAGCAGTGCTCGCAGGTCGTACCGA
modifications: fluorescein-dT at position 12 of strand 1
As to B7, the binding result in series [2] (setting [9]) is recorded as “binds”. The Kd in series [3] (setting [9]) was found to be 480 nM.
